Source: patent publication US20210079070A1

Columns and labels:
[1] = target: BG505 SOSIP.664 Env ectodomain trimer (HIV-1); test: SPR, BG505 SOSIP.664 captured by mAb 2G12, Fab in the flow phase
JRFL SOSIP.664 (HIV-1) = test: ELISA on soluble trimer, panel JRFL SOSIP.664, OD 450
[2] = target: BG505 SOSIP.664 Env ectodomain trimer (HIV-1); test: ELISA on soluble trimer, panel BG505 SOSIP.664, OD 450
[3] = target: HIV-1 Env (wild type, as used in the mutagenesis mapping of FIG. 6) (HIV-1); test: cell-based or functional assay
[4] = target: HIV-1 Env R304E mutant (HIV-1); test: cell-based or functional assay
[5] = target: BG505 SOSIP.664 Env ectodomain trimer (HIV-1); test: ELISA, panel 'N6 70-03 Binding to BG505 SOSIP.664', HIV-1 Env mutation: WT
BG505 DS-SOSIP = test: ELISA, panels headed BG505 DS-SOSIP, OD 450
[6] = target: BG505 SOSIP.664 Env ectodomain trimer (HIV-1); test: ELISA, BG505 SOSIP.664 coated on the plate, HRP anti-human IgG, OD 450

N6 Fab was tested, and the Kd [1] was 360 pM.

For VRC01 (antibody), the EC50 (read off the curve) (JRFL SOSIP.664 (HIV-1)) was 0.2 µg/mL and the EC50 (read off the curve) [2] was 0.4 µg/mL.

With VRC01 Fab the Kd [1] was 22100 pM.

Work on N6 (antibody) yielded an EC50 (read off the curve) (JRFL SOSIP.664 (HIV-1)) of 0.2 µg/mL.

B1: N6 70-03 (antibody, V domains shown)
VH: RAHLVQSGTAMKKPGASVRVSCQTSGYTFTAHILFWFRQAPGRGLEWVGWIKPQYGAVNFGGGFRDRVTLTRQLSQDPDDPDWGIAYMDIRGLKPDDTAVYYCARDRSYGDSSWALDAWGQGTTVVVSA
VL: YIHVTQSPSSLSVSIGDRVTINCQTSQGVGSDLHWYQHKPGRAPKLLIHHTSSVEDGVPSRFSGSGFHTSFNLTISDLQADDIATYYCQVLQFFGRGSRLHIK
For B1, the EC50 (read off the curve) (E62K/E64K) was 0.1 µg/mL, the neutralization sensitivity (IC50), Env-pseudovirus infection of TZM-bl cells [3] was 0.007 µg/mL and the neutralization sensitivity (IC50), Env-pseudovirus infection of TZM-bl cells [4] was 0.053 µg/mL. It also gave a reduction in neutralization sensitivity compared to the WT virus [4] of 8 fold, an EC50 (read off the curve) (JRFL SOSIP.664 (HIV-1)) of 0.2 µg/mL and an EC50 (read off the curve) [2] of 0.2 µg/mL. For the same molecule, the EC50 (read off the curve) [5] was 0.2 µg/mL.

B2: N6 70-03 Fab (Fab, V domains shown)
VH: RAHLVQSGTAMKKPGASVRVSCQTSGYTFTAHILFWFRQAPGRGLEWVGWIKPQYGAVNFGGGFRDRVTLTRQLSQDPDDPDWGIAYMDIRGLKPDDTAVYYCARDRSYGDSSWALDAWGQGTTVVVSA
VL: YIHVTQSPSSLSVSIGDRVTINCQTSQGVGSDLHWYQHKPGRAPKLLIHHTSSVEDGVPSRFSGSGFHTSFNLTISDLQADDIATYYCQVLQFFGRGSRLHIK
B2 showed a Kd [1] of 16 pM.

B3: VRC06 (antibody, V domains shown)
VH: EVQLVESGPVMRKPGSSMKISCATSGYNFRDFSIHWVRFNRRYGFEWIGWIKPMWGAVNYARQLQGRVSMSRLFSQDLYYPDRGTAYLEFSGLTSADTADYFCVRRGSSCPHCGDFHFEHWGQGTAVVVSA
VL: EIVLTQSPATLSLSPGERATLSCRASQGGNSLNWYQKRRGQTPRLLIYDTSRRASDIPEKFVGSGSGTDFSLTITKVGPEDFAVYYCQQFEFFGLGTTLEIN
With B3 the EC50 (read off the curve) (BG505 DS-SOSIP) was 0.5 µg/mL.

B4: VRC03 (antibody, V domains shown)
VH: QVQLVQSGAVIKTPGSSVKISCRASGYNFRDYSIHWVRLIPDKGFEWIGWIKPLWGAVSYARQLQGRVSMTRQLSQDPDDPDWGVAYMEFSGLTSADTAEYFCVRRGSCDYCGDFPWQYWGQGTWVVSSA
VL: EIVLTQSPGILSLSPGETATLFCKASQGGNAMTWYQKRRGQVPRLLIYDTSRRASGVPDRFVGSGSGTDFFLTINKLDREDFAVYYCQQFEFFGLGSELEVH
B4 was tested, and the EC50 (read off the curve) (BG505 DS-SOSIP) was 0.3 µg/mL and the EC50 (read off the curve) [6] was 0.8 µg/mL.
